Data taken from patent publication US7125658B2, “Small protein that interacts with a ribonucleotide reductase subunit and uses thereof” (The Trustees of Columbia University in the City of New York, priority 1998, dated 2006).

Assays:
[1] = target: T1, Recombinant mouse ribonucleotide reductase R2 protein (mouse, UniProt P11157 1-390); assay: BIAcore, immobilized Sml1p
T1 construct: also called mouse R2 protein
T1 sequence (looked up): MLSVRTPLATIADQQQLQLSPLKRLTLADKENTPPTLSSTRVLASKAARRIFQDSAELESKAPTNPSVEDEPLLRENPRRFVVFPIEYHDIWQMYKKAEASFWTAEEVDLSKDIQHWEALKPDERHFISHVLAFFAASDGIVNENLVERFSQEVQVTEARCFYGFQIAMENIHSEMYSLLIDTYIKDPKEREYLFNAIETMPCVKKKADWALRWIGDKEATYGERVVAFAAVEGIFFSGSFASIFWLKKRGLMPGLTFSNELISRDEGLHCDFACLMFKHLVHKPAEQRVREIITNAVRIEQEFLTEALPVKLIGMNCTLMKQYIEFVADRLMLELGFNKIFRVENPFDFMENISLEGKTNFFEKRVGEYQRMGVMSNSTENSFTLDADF

mouse R1 protein = target: T2, mouse R1 protein (Mus musculus, UniProt P07742); assay: BIAcore biosensor analysis, immobilized Sml1p and mouse R1 protein; assay type: binding; conditions: not quantified
T2 construct: made in house; host or cells: E. coli BL21 (DE3)pLysS, pET3a
T2 sequence (P07742 1-792): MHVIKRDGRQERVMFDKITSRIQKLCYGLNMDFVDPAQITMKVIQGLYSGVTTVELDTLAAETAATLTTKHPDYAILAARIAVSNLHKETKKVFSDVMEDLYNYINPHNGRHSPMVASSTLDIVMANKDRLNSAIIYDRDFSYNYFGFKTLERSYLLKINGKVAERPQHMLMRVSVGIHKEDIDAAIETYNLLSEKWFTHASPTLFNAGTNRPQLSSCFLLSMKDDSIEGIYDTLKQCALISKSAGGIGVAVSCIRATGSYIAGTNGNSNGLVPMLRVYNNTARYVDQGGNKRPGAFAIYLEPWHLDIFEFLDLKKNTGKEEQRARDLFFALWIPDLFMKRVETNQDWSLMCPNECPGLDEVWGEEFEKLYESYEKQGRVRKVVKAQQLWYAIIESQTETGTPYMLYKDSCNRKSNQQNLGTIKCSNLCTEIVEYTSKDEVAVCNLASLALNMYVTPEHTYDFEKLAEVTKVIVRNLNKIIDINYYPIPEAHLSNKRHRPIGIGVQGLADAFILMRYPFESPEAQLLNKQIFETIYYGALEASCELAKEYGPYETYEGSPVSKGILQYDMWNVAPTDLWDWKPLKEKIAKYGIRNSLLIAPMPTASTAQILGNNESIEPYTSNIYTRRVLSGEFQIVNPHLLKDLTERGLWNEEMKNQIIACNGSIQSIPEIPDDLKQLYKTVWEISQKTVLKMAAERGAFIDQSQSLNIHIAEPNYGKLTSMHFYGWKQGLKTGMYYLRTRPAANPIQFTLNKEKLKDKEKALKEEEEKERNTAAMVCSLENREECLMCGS
Description: FIG. 14 Sensorgram showing the interaction between immobilized Sml1p and the mouse R1 protein. […] Curve 3 showes the response with mouse R1 protein alone at 0.1 mg/ml passed over immobilized Sml1p. Note that the injection time for this curve is prolonged from 6 min to 14 min.
BIAcore biosensor analysis. The interaction between Sml1p and either yeast Rnr1p or mouse R1 protein was studied by biosensor analysis using the BIAcore method (Biacore AB). The Sml1 protein was prepared in 10 mM sodium acetate, pH 5.2, at a concentration of 0.44 mg/ml; it was then immobilized on the dextran layer of the sensor chip as described previously for the mouse R2 protein (17). The ligand proteins were equilibrated with running buffer (10 mM Hepes-KOH, pH 7.4, 200 mM potassium acetate, 1 mM EDTA, 5 mM magnesium acetate and 0.05% Surfactant P20 (BIAcore). The interactions were studied at a constant temperature of 22° C. and a constant flow of 5 μl/min. Kinetics for the interaction of Sml1p with yeast Rnr1p was determined by allowing the immobilized Sml1p to interact with increasing concentrations of Rnr1p (18). The resonance unit (RU) is proportional to the mass, and 1 RU corresponds to a surface concentration of 1 pg of protein/mm^2 of the 100 nm thick dextran layer (19).
Kinetic studies of the interaction between the mouse RNR R1 protein and the Sml1 protein using a biosensor technique. […]

B1: Recombinant yeast Sml1 protein (other)
chain: MQNSQDYFYAQNRCQQQQAPSTLRTVTMAEFRRVPLPPMAEVPMLSTQNSMGSSASASASSLEMWEKDLEERLNSIDHDMNNNKFGSGELKSMFNQGKVEEMDF
notes: Immobilized on the BIAcore chip in the biosensor experiments; also called YML058W product
- binding result [1]: no binding

B2: Sml1p: 104 amino acid yeast protein encoded by YML058w (SML1) that binds Rnr1 and inhibits ribonucleotide reductase; recombinant, expressed in E. coli (protein)
chain: B1 chain
- binding to mouse R1 protein (mouse R1 protein): high affinity
